# Substitutions are numbered along the chain they refer to. Numbers in names are those of the source.
# T1: Human CD3eg linker (human)
# T1 construct: Single chain: epsilon and gamma subunits of human CD3 joined by a 29-mer linker, Flag-tag at the C-terminus; also called recombinant human CD3
# T1 chain: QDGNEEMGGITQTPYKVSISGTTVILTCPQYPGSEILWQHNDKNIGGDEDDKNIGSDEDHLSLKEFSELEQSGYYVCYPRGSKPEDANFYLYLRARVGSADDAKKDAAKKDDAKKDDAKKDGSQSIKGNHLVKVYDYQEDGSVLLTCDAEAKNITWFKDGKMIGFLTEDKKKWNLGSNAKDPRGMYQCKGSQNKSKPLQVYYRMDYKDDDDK
# B1: H183/L072 VH S62A (antibody, name in Kabat numbering, V domains shown)
# VH: QVQLVESGGGLVQPGRSLRLSCAASGFTFSNAWMHWVRQAPGKGLEWVAQIKDKGNAYAAYYAPAVKGRFTISRDDSKNSIYLQMNSLKTEDTAVYYCHYVHYASASTVLPAFGVDAWGQGTTVTVSS
# VL: DIVMTQSPLSLPVTPGEPASISCQASQELVHMNRNTYLHWYQQKPGQAPRLLIYKVSNRFPGVPDRFSGSGSGTDFTLKISRVEAEDVGVYYCAQGTSVPFTFGQGTKLEIK
# B2: H183/L072 VH V63A (antibody, name in Kabat numbering, V domains shown)
# VH: B1 VH with A65S, V66A
# VL: B1 VL
# B3: H183/L072 VH S100aM (antibody, name in Kabat numbering, V domains shown)
# VH: B1 VH with A65S, S107M
# VL: B1 VL
# B4: H183/L072 VH T28M (antibody, name in Kabat numbering, V domains shown)
# VH: B1 VH with T28M, A65S
# VL: B1 VL
# B5: H183/L072 VH T28G (antibody, name in Kabat numbering, V domains shown)
# VH: B1 VH with T28G, A65S
# VL: B1 VL
# B6: H183/L072 VH S100aI (antibody, name in Kabat numbering, V domains shown)
# VH: B1 VH with A65S, S107I
# VL: B1 VL
# B7: H183/L072 VH V95I (antibody, name in Kabat numbering, V domains shown)
# VH: B1 VH with A65S, V101I
# VL: B1 VL
# B8: H183/L072 VH S99L (antibody, name in Kabat numbering, V domains shown)
# VH: B1 VH with A65S, S105L
# VL: B1 VL
# B9: H183/L072 VH S100aA (antibody, name in Kabat numbering, V domains shown)
# VH: B1 VH with A65S, S107A
# VL: B1 VL
# B10: H183/L072 VH T28N (antibody, name in Kabat numbering, V domains shown)
# VH: B1 VH with T28N, A65S
# VL: B1 VL
# B11: H183/L072 VH S62M (antibody, name in Kabat numbering, V domains shown)
# VH: B1 VH with A65M
# VL: B1 VL
# B12: H183/L072 VH T28L (antibody, name in Kabat numbering, V domains shown)
# VH: B1 VH with T28L, A65S
# VL: B1 VL
# B13: H183/L072 VH S99I (antibody, name in Kabat numbering, V domains shown)
# VH: B1 VH with A65S, S105I
# VL: B1 VL
# B14: H183/L072 VH V95A (antibody, name in Kabat numbering, V domains shown)
# VH: B1 VH with A65S, V101A
# VL: B1 VL
# B15: H183/L072 VH V63I (antibody, name in Kabat numbering, V domains shown)
# VH: B1 VH with A65S, V66I
# VL: B1 VL
# B16: H183/L072 VH S100aL (antibody, name in Kabat numbering, V domains shown)
# VH: B1 VH with A65S, S107L
# VL: B1 VL
# B17: H183/L072 VH T28D (antibody, name in Kabat numbering, V domains shown)
# VH: B1 VH with T28D, A65S
# VL: B1 VL
# B18: H183/L072 VH T28A (antibody, name in Kabat numbering, V domains shown)
# VH: B1 VH with T28A, A65S
# VL: B1 VL
# B19: H183/L072 VH V95L (antibody, name in Kabat numbering, V domains shown)
# VH: B1 VH with A65S, V101L
# VL: B1 VL
# B20: H183/L072 VH S99M (antibody, name in Kabat numbering, V domains shown)
# VH: B1 VH with A65S, S105M
# VL: B1 VL
# B21: H183/L072 VH T100bM (antibody, name in Kabat numbering, V domains shown)
# VH: B1 VH with A65S, T108M
# VL: B1 VL
# B22: H183/L072 VH S62I (antibody, name in Kabat numbering, V domains shown)
# VH: B1 VH with A65I
# VL: B1 VL
# B23: H183/L072 VH T28W (antibody, name in Kabat numbering, V domains shown)
# VH: B1 VH with T28W, A65S
# VL: B1 VL
# B24: H183/L072 VH S99P (antibody, name in Kabat numbering, V domains shown)
# VH: B1 VH with A65S, S105P
# VL: B1 VL
# B25: H183/L072 VH T100bA (antibody, name in Kabat numbering, V domains shown)
# VH: B1 VH with A65S, T108A
# VL: B1 VL
# B26: H183/L072 VH T28E (antibody, name in Kabat numbering, V domains shown)
# VH: B1 VH with T28E, A65S
# VL: B1 VL
# B27: H183/L072 VH V63M (antibody, name in Kabat numbering, V domains shown)
# VH: B1 VH with A65S, V66M
# VL: B1 VL
# B28: H183/L072 VH T28K (antibody, name in Kabat numbering, V domains shown)
# VH: B1 VH with T28K, A65S
# VL: B1 VL
# B29: H183/L072 VH T28S (antibody, name in Kabat numbering, V domains shown)
# VH: B1 VH with T28S, A65S
# VL: B1 VL
# B30: H183/L072 VH S100aP (antibody, name in Kabat numbering, V domains shown)
# VH: B1 VH with A65S, S107P
# VL: B1 VL
# B31: H183/L072 VH T100bL (antibody, name in Kabat numbering, V domains shown)
# VH: B1 VH with A65S, T108L
# VL: B1 VL
# B32: H183/L072 VH S62P (antibody, name in Kabat numbering, V domains shown)
# VH: B1 VH with A65P
# VL: B1 VL
# B33: H183/L072 VH T28H (antibody, name in Kabat numbering, V domains shown)
# VH: B1 VH with T28H, A65S
# VL: B1 VL
# B34: H183/L072 VH T28P (antibody, name in Kabat numbering, V domains shown)
# VH: B1 VH with T28P, A65S
# VL: B1 VL
# B35: H183/L072 VH S62L (antibody, name in Kabat numbering, V domains shown)
# VH: B1 VH with A65L
# VL: B1 VL
# B36: H183/L072 VH T28V (antibody, name in Kabat numbering, V domains shown)
# VH: B1 VH with T28V, A65S
# VL: B1 VL
# B37: H183/L072 VH T28I (antibody, name in Kabat numbering, V domains shown)
# VH: B1 VH with T28I, A65S
# VL: B1 VL
# B38: H183/L072 VH V63P (antibody, name in Kabat numbering, V domains shown)
# VH: B1 VH with A65S, V66P
# VL: B1 VL
# B39: H183/L072 VH T100bP (antibody, name in Kabat numbering, V domains shown)
# VH: B1 VH with A65S, T108P
# VL: B1 VL
# B40: H183/L072 VH T100bI (antibody, name in Kabat numbering, V domains shown)
# VH: B1 VH with A65S, T108I
# VL: B1 VL
# B41: H183/L072 VH T28F (antibody, name in Kabat numbering, V domains shown)
# VH: B1 VH with T28F, A65S
# VL: B1 VL
# B42: H183/L072 VH T28Q (antibody, name in Kabat numbering, V domains shown)
# VH: B1 VH with T28Q, A65S
# VL: B1 VL
# B43: H183/L072 VH S99A (antibody, name in Kabat numbering, V domains shown)
# VH: B1 VH with A65S, S105A
# VL: B1 VL
# B44: H183/L072 VH V63L (antibody, name in Kabat numbering, V domains shown)
# VH: B1 VH with A65S, V66L
# VL: B1 VL
# B45: H183/L072 VH T28R (antibody, name in Kabat numbering, V domains shown)
# VH: B1 VH with T28R, A65S
# VL: B1 VL
# Biological target: T1, Human CD3eg linker
# Assay: Biacore SPR, vs template H183/L072
row,fold change of affinity,Binder
1,1.4 fold,B1
2,1.1 fold,B2
3,0.8 fold,B3
4,0.8 fold,B4
5,0.7 fold,B5
6,1 fold,B6
7,7.5 fold,B7
8,0.8 fold,B8
9,0.8 fold,B9
10,0.8 fold,B10
11,1.3 fold,B11
12,0.9 fold,B12
13,0.7 fold,B13
14,0 fold,B14
15,1.4 fold,B15
16,1.1 fold,B16
17,0.6 fold,B17
18,0 fold,B18
19,0 fold,B19
20,0.9 fold,B20
21,1 fold,B21
22,1.4 fold,B22
23,0.9 fold,B23

row,fold change of affinity,Binder
1,0.6 fold,B24
2,1.1 fold,B25
3,0.6 fold,B26
4,1.4 fold,B27
5,2.7 fold,B28
6,1.2 fold,B29
7,1.1 fold,B30
8,1.1 fold,B31
9,1.3 fold,B32
10,0.9 fold,B33
11,0.7 fold,B34
12,1.5 fold,B35
13,1 fold,B36
14,1.1 fold,B37
15,1.2 fold,B38
16,1.1 fold,B39
17,1.4 fold,B40
18,1 fold,B41
19,0 fold,B42
20,1 fold,B43
21,1.6 fold,B44
22,2.9 fold,B45

# Source: patent publication US20210388087A1 (Chugai, published 2021)
